Article PMC7269643 (Science Advances, 2020)

Biological target: the molecule itself
Assay: AUC

B1: VapC22 toxin from Mycobacterium tuberculosis, expressed alone from a modified pBAD/Myc-His vector (enzyme)
chain: MTTVLLDSHVAYWWSAEPQRLSMAASQAIEHADELAVAAISWFELAWLAEQERIQLAIPVLSWLQQLAEHVRTVGITPSVAATAVALPSSFPGDPADRLIYATAIEHGWRLVTKDRRLRSHRHPRPVTVW
- stoichiometry N: 2
